The series has as its target CA 15-3 (Cancer Antigen 15-3) (UniProt P15941 24-1097). Nature of the series: electrochemical aptasensor (CV, SWV, EIS); label-free, ferri/ferrocyanide redox probe; aptamer on g-C3N4/Fe3O4; linear 10-90 U/mL; PBS pH 7.4 (0.1 M), room temperature, 35 min incubation; 0.2 mM ferricyanide probe (label-free) or methylene blue in PBS (label-based).

Data on one molecule can be found in paper PMC9688306, “Construction of Aptamer-Based Nanobiosensor for Breast Cancer Biomarkers Detection Utilizing g-C3N4/Magnetic Nano-Structure”.

Sequence of CA 15-3 (Cancer Antigen 15-3) (P15941 24-1097): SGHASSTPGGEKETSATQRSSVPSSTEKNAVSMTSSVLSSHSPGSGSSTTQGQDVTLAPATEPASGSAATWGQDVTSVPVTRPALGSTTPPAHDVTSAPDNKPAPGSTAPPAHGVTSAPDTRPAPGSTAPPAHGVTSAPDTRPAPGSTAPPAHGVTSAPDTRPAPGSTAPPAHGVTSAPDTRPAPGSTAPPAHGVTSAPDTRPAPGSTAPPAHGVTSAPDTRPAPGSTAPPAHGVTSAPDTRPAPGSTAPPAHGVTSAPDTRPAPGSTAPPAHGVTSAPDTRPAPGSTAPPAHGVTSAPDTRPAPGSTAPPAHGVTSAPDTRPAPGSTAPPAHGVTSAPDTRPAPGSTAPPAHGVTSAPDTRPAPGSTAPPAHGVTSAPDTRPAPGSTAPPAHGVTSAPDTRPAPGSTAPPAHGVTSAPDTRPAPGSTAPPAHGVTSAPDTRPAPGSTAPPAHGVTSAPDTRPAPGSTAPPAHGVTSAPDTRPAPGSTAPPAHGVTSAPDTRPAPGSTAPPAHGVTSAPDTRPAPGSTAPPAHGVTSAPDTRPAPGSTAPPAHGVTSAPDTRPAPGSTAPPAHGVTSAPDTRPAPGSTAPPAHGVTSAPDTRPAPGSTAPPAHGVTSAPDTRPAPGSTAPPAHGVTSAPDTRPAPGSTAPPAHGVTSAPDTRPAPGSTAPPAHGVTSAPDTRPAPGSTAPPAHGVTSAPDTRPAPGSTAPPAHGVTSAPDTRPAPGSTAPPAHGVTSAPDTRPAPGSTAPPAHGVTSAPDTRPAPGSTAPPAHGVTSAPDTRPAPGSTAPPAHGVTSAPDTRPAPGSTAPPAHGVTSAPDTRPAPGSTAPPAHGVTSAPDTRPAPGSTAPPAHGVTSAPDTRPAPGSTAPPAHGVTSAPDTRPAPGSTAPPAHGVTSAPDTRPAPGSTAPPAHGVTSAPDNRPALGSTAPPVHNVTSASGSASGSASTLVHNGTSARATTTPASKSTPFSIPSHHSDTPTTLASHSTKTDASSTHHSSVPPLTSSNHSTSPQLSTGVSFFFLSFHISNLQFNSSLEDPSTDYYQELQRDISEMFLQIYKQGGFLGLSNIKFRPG

Take GAAGTGAATATGACAGATCACAACT (ssDNA) [CA 15-3 aptamer]: the binding result is recorded as “binds”.
